Results: paper PMC5240526, “ATPase activity tightly regulates RecA nucleofilaments to promote homologous recombination”

Key:
RecA wild type [1] = target: T1, RecA wild type (Escherichia coli, UniProt P0A7G6 2-353); experiment: CE-LIFP; 0.01-3.0 mM ATP; 16 uM RecA; four complexes; 20 mM Tris-HCl pH 7.4, 10 mM Mg2+, 10 nM oligo, 0-3.0 uM RecA, 37 C 10 min; CE in 25 mM Tris, 192 mM glycine, 0.5 mM Ca2+, pH 8.3, room temperature; settings: protein: recombinant; label: 5'-TMR
RecA wild type [2] = target: T1, RecA wild type; experiment: CE-LIFP; ATP, 10 mM Mg2+; 3.0 uM RecA; mainly unsaturated filament; 20 mM Tris-HCl pH 7.4, 10 mM Mg2+, 10 nM oligo, 0-3.0 uM RecA, 37 C 10 min; CE in 25 mM Tris, 192 mM glycine, 0.5 mM Ca2+, pH 8.3, room temperature; settings: protein: recombinant; label: 5'-TMR
RecA wild type [3] = target: T1, RecA wild type; experiment: CE-LIFP; 0.01-3.0 mM ATP; 16 uM RecA; five complexes; 20 mM Tris-HCl pH 7.4, 10 mM Mg2+, 10 nM oligo, 0-3.0 uM RecA, 37 C 10 min; CE in 25 mM Tris, 192 mM glycine, 0.5 mM Ca2+, pH 8.3, room temperature; settings: protein: recombinant; label: 5'-TMR
RecA wild type [4] = target: T1, RecA wild type; experiment: CE-LIFP; ATP, 10 mM Mg2+; six complexes (1-6 RecA), mainly 1:4 DNA:RecA at 1.0 mM ATP; 20 mM Tris-HCl pH 7.4, 10 mM Mg2+, 10 nM oligo, 0-3.0 uM RecA, 37 C 10 min; CE in 25 mM Tris, 192 mM glycine, 0.5 mM Ca2+, pH 8.3, room temperature; settings: protein: recombinant; label: 5'-TMR
RecA wild type [5] = target: T1, RecA wild type; experiment: CE-LIFP; 0.1 mM ATPgS, 10 mM Mg2+; 3.0 uM RecA; saturated filament; 20 mM Tris-HCl pH 7.4, 10 mM Mg2+, 10 nM oligo, 0-3.0 uM RecA, 37 C 10 min; CE in 25 mM Tris, 192 mM glycine, 0.5 mM Ca2+, pH 8.3, room temperature; settings: protein: recombinant; label: 5'-TMR
RecA wild type [6] = target: T1, RecA wild type; experiment: electron microscopy; 0.1 mM ATPgS; 3.0 uM RecA, 300 nM DNA; saturated filament; 20 mM Tris-HCl pH 7.4, 10 mM Mg2+, 10 nM oligo, 0-3.0 uM RecA, 37 C 10 min; CE in 25 mM Tris, 192 mM glycine, 0.5 mM Ca2+, pH 8.3, room temperature; settings: protein: recombinant

T1 sequence (P0A7G6 2-353): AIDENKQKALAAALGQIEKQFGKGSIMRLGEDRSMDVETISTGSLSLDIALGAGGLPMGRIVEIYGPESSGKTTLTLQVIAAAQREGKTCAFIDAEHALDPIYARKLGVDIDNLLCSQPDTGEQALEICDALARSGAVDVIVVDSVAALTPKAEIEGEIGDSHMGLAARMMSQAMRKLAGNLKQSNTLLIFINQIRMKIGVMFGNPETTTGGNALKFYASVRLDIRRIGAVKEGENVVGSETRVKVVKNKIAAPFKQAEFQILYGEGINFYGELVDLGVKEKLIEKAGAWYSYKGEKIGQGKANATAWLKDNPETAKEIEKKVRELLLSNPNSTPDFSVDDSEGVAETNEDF

B1: TMR-T12 (ssDNA)
DNA: TTTTTTTTTTTT
B1: binds (RecA wild type [1]).

B2: TMR-ss175mer (ssDNA)
DNA: TCGTCTTTGGTATGTAGGTGGTCAACAATTTTAATTGCAGGGGCTTCGGCCCCTTACTTGAGGATAAATTATGTCTAATATTCAAACTGGCGCCGAGCGTATGCCGCATGACCTTTCCCATCTTGGCTTCCTTGCTGGTCAGATTGGTCGTCTTATTACCATTTCAACTACTCCG
B2: binds (RecA wild type [2]).

B3: TMR-T15 (ssDNA)
DNA: TTTTTTTTTTTTTTT
B3: binds (RecA wild type [3]).

B4: TMR-T18 (ssDNA)
DNA: TTTTTTTTTTTTTTTTTT
B4: binds (RecA wild type [4]).

B5: TMR-ss83mer (ssDNA)
DNA: TTTCCTACCTTAAGATCCTTCCAGTCTCCGCCGGCCAGTGTTACCCTTAGAGCTCATACCATTCGCCAATTTCTTCGCACGTT
B5: binds (RecA wild type [5]).

B6: ss83mer (ssDNA)
DNA: B5 DNA
B6: binds (RecA wild type [6]).
